Assay results as given in patent publication US20230407401A1 (NATIONAL INSTITUTE OF IMMUNOLOGY, published 2023).

Molecular target: T1, S35 methionine radiolabelled BLM (in vitro translated) (UniProt P54132 1-1417, limits assumed, S35 methionine radiolabel)
T1 construct: also called in vitro translated BLM; radioactive BLM
Test: in vitro interaction of S35 methionine radiolabelled BLM with bound GST SMAD3, autoradiography
Description: H. BLM directly interacted with SMAD3 and HDAC1. (Top) In vitro interactions were carried out with S35 methionine radiolabelled BLM and bound (left) GST and GST SMAD3, (right) GST and GST HDAC1. Post-interaction the bound radioactive BLM was detected by autoradiography. (Bottom) Inputs used for in vitro translated BLM (detected by autoradiography) and GST, GST SMAD3, GST HDAC1 (detected by Coomassie). The

T1 sequence (P54132 whole entry): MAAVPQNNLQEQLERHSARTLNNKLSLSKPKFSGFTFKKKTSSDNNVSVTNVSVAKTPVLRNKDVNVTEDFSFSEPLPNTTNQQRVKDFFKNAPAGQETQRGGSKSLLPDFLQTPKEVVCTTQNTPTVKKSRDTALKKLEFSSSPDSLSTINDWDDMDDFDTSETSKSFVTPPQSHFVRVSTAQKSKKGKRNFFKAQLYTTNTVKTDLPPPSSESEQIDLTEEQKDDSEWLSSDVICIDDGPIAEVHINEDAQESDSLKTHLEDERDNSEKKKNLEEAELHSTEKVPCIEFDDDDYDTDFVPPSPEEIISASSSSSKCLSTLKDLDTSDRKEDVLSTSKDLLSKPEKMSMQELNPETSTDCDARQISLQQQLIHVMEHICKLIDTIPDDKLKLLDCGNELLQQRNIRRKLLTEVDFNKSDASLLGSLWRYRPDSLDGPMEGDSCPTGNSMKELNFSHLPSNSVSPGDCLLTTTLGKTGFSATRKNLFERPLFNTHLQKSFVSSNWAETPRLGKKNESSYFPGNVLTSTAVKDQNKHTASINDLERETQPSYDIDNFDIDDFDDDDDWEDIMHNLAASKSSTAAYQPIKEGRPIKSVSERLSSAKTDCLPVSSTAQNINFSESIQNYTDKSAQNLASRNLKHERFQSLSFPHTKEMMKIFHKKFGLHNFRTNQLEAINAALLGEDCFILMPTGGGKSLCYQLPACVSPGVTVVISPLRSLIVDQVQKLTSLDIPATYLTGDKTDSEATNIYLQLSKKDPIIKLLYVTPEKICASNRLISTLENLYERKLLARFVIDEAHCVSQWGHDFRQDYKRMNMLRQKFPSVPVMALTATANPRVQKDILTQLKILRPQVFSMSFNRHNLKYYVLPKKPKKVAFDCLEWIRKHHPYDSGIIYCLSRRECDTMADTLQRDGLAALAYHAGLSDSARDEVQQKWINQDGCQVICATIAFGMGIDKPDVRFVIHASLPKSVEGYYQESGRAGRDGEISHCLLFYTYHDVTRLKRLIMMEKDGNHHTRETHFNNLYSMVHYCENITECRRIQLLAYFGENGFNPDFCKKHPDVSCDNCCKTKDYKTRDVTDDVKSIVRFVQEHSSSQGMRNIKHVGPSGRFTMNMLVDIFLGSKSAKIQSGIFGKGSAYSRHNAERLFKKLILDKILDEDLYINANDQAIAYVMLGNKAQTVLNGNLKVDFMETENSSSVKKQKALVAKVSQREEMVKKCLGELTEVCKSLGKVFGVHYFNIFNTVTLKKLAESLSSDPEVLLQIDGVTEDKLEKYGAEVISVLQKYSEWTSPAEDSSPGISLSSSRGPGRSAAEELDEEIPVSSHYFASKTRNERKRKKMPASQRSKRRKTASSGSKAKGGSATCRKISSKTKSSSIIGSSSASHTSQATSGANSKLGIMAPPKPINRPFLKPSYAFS

B1: GST SMAD3 (WT) (other, UniProt P84022 1-425, looked up)
chain: MSSILPFTPPIVKRLLGWKKGEQNGQEEKWCEKAVKSLVKKLKKTGQLDELEKAITTQNVNTKCITIPRSLDGRLQVSHRKGLPHVIYCRLWRWPDLHSHHELRAMELCEFAFNMKKDEVCVNPYHYQRVETPVLPPVLVPRHTEIPAEFPPLDDYSHSIPENTNFPAGIEPQSNIPETPPPGYLSEDGETSDHQMNHSMDAGSPNLSPNPMSPAHNNLDLQPVTYCEPAFWCSISYYELNQRVGETFHASQPSMTVDGFTDPSNSERFCLGLLSNVNRNAAVELTRRHIGRGVRLYYIGGEVFAECLSDSAIFVQSPNCNQRYGWHPATVCKIPPGCNLKIFNNQEFAALLAQSVNQGFEAVYQLTRMCTIRMSFVKGWGAEYRRQTVTSTPCWIELHLNGPLQWLDKVLTQMGSPSIRCSSVS
notes: also called pGEX6-SMAD3 WT; not shown: Glutathione S-transferase tag of the pGEX6 vector
**Q.** Does B1 bind?
**A.** Result: binds
